Laboratory results from the supplement of paper PMC6757056.
± gives the standard deviation of the averaged measurements.

B1: library; a variant is named by its letters at N, in order (parent)
chain: GCUGUCACCGAGAAACUGUGAAGUAUAUCUUAAACCUGGGCACUUAAAAGAUAUAUGGAGUUAGUAGUGCAACCUGCUCGGUCUGAUGAGUCCNNNNNNGGACGAAACAGC

Assays:
cyclic di-GMP [1] = variants of: B1; test: normalized RNA/DNA level without ligand (relative to sTRSVctl = 100) (log10 (% of sTRSVctl)); HEK293T; ligand: cyclic di-GMP (c-di-GMP-II aptamer); higher = less ribozyme self-cleavage, higher mRNA level; details: reporter: mCherry (pCS4076), ligand present: no
Outline: (§1)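 Ribozyme switch library plasmids with mCherry reporters (eGFP in certain ligand experiments) went into HEK293T cells at 4 µg per 6-well well. Where ligand was used, it was applied 1 h before transfection, and total RNA was extracted with EDTA 72 h later for reverse transcription, amplification, barcoding and sequencing. RNA level is the RNA-to-DNA read ratio normalized to a spiked-in non-cleaving sequence or to the leading sequences, then scaled and log-transformed. Scaling was ×100 with log10, the leading set comprised 25 sequences, and the cutoff was ≥100 DNA reads.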

cyclic di-GMP [2] = variants of: B1; test: normalized RNA/DNA level with ligand (relative to sTRSVctl = 100) (log10 (% of sTRSVctl)); HEK293T; ligand: cyclic di-GMP (c-di-GMP-II aptamer); ligand concentration (+) RNA-Seq: 1 mM; higher = less ribozyme self-cleavage, higher mRNA level; details: reporter: mCherry (pCS4076), ligand present: yes
Outline: as §1

Variant	normalized RNA/DNA level without ligand (log10) (cyclic di-GMP [1])	normalized RNA/DNA level with ligand (log10) (cyclic di-GMP [2])
AGUGAU	1.671 ± 0.003	1.81 ± 0.12
AGUGAG	1.52 ± 0.11	1.67 ± 0.13
GGGGAA	1.48 ± 0.1	1.54 ± 0.055
CGGCUG	1.74 ± 0.087	1.87 ± 0.12
CGGCUC	1.782 ± 0.0084	1.85 ± 0.085
GGUGCA	1.78 ± 0.12	1.91 ± 0.13
GGUGCC	1.82 ± 0.077	1.95 ± 0.15
UGGUGU	1.6 ± 0.11	1.81 ± 0.063
UGGUGG	1.68 ± 0.017	1.81 ± 0.12
UGGUGC	1.72 ± 0.053	1.86 ± 0.099
CGGUCG	1.78 ± 0.042	1.9 ± 0.13
CGGUCU	1.56 ± 0.064	1.72 ± 0.11
UGUAUG	1.75 ± 0.045	1.9 ± 0.13
UGUAUC	1.734 ± 0.0024	1.87 ± 0.11
UGUAUU	1.73 ± 0.016	1.9 ± 0.091
CGGGAC	1.669 ± 0.012	1.79 ± 0.085
CGGGAU	1.49 ± 0.05	1.64 ± 0.13
CGUCGC	1.76 ± 0.024	1.87 ± 0.16
CGUCGG	1.7 ± 0.039	1.81 ± 0.13

Variant	normalized RNA/DNA level without ligand (log10) (cyclic di-GMP [1])	normalized RNA/DNA level with ligand (log10) (cyclic di-GMP [2])
CGUCGU	1.78 ± 0.061	1.9 ± 0.13
CGUGGG	1.62 ± 0.058	1.8 ± 0.073
CGUGGU	1.74 ± 0.021	1.87 ± 0.076
CGUGGC	1.748 ± 0.0072	1.85 ± 0.15
UGUCUU	1.73 ± 0.0071	1.88 ± 0.1
UGUCUC	1.79 ± 0.0075	1.88 ± 0.087
UGUCUA	1.71 ± 0.037	1.84 ± 0.15
UGUCUG	1.736 ± 0.0044	1.88 ± 0.08
GGUCAC	1.754 ± 0.014	1.87 ± 0.091
GGUCAA	1.4 ± 0.095	1.64 ± 0.092
GGUCAU	1.56 ± 0.055	1.83 ± 0.081
CGUAUG	1.73 ± 0.019	1.86 ± 0.13
CGUAUC	1.58 ± 0.045	1.76 ± 0.098
CGUAUU	1.33 ± 0.083	1.57 ± 0.11
CGUGCU	1.64 ± 0.05	1.81 ± 0.063
CGUGCC	1.75 ± 0.02	1.84 ± 0.093
GGUCGU	1.66 ± 0.056	1.83 ± 0.036
GGUCGC	1.74 ± 0.034	1.87 ± 0.15
AGUCCU	1.77 ± 0.023	1.87 ± 0.086

Variant	normalized RNA/DNA level without ligand (log10) (cyclic di-GMP [1])	normalized RNA/DNA level with ligand (log10) (cyclic di-GMP [2])
AGUCCC	1.77 ± 0.042	1.87 ± 0.069
AGUCCA	1.663 ± 0.0054	1.78 ± 0.049
CGGGGU	1.72 ± 0.0034	1.83 ± 0.13
CGGGGG	1.62 ± 0.059	1.77 ± 0.026
GGGGUC	1.654 ± 0.0072	1.79 ± 0.12
GGGGUA	1.52 ± 0.018	1.62 ± 0.13
CGUCCC	1.75 ± 0.029	1.9 ± 0.086
CGUCCG	1.82 ± 0.035	1.89 ± 0.069
CGUCCA	1.53 ± 0.11	1.72 ± 0.1
UGGGUG	1.73 ± 0.04	1.86 ± 0.098
UGGGUC	1.8 ± 0.026	1.93 ± 0.11
UGGGUU	1.717 ± 0.016	1.82 ± 0.16
UGGGUA	1.61 ± 0.071	1.78 ± 0.029
AGUCAG	1.571 ± 0.011	1.73 ± 0.16
AGUCAU	1.69 ± 0.071	1.85 ± 0.13
AGUCAA	1.48 ± 0.039	1.69 ± 0.1
AGUCAC	1.67 ± 0.062	1.81 ± 0.049
UGGUCC	1.86 ± 0.085	1.98 ± 0.085
UGGUCU	1.75 ± 0.048	1.91 ± 0.11
